The values that follow come from patent publication US20220372138A1 (IOMX THERAPEUTICS, published 2022).

Assay [1] deals with T1, ECD of murine IGSF11, recombinant biotinylated (mouse, UniProt P0C673 23-240).
T1 construct: whole entry named; also called Mouse IGSF11
T1 sequence: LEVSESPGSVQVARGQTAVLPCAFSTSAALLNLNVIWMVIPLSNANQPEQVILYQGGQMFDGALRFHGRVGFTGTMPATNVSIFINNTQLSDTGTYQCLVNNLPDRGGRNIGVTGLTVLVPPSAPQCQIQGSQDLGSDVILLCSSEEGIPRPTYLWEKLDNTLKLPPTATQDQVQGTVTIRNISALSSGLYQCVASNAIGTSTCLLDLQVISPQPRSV
In words: ELISA RFU 0.5-1.0. A general note: An ELISA detects its analyte on a solid surface through an enzyme-linked reagent.

The target in assay [2] is T2, extracellular domain (ECD) of human IGSF11 (VSIG3), recombinant (human, UniProt Q5DX21 23-241).
T2 construct: biotinylated where captured on streptavidin; tags of the reagent not always stated; also called IGSF11 (ECD domain); ECD-IGSF11
T2 sequence: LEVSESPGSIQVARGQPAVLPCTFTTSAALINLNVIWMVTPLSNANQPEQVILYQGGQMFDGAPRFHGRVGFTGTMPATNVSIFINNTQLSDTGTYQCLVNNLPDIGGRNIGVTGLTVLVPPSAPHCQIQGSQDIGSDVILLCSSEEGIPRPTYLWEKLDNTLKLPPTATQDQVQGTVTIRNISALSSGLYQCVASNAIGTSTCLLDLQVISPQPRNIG
In words: ELISA RFU>1.0.

Assay [3] deals with T2, extracellular domain (ECD) of human …. Put plainly: SPR. Background: In SPR one partner is held on a chip, and binding of the other changes the refractive index at the surface.
The target in assay [4] is T3, human IGSF11 (VSIG3) ECD, His-tagged (human, UniProt Q5DX21 23-241).
T3 construct: in part bought (SinoBiological 13094-H08H); also called HIS-IGSF11; IGSF11-HIS; not shown: His tag
T3 sequence: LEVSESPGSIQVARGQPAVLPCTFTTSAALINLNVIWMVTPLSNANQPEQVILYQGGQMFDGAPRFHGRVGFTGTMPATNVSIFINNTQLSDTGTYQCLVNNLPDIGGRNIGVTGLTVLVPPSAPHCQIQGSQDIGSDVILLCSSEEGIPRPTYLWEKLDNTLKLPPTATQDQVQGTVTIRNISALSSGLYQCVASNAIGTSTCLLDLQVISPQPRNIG
In words: IgG1 ELISA EC50 0.05-1 nM.

For assay [5], the target named is T1, ECD of murine IGSF11, recombinant …. In words: ELISA RFU>1.0.
The target in assay [6] is T3, human IGSF11 (VSIG3) ECD, His-tagged. In words: IgG1 ELISA EC50 0.02-0.05 nM.
Assay [7] addresses Streptavidin (UniProt P22629 37-163, limits assumed). In words: Fab ELISA.
For assay [8], the target named is T4, ECD of cynomolgus monkey IGSF11, recombinant biotinylated (cynomolgus monkey, UniProt Q5DX21 23-241 (human entry)).
T4 construct: whole entry named
T4 chain: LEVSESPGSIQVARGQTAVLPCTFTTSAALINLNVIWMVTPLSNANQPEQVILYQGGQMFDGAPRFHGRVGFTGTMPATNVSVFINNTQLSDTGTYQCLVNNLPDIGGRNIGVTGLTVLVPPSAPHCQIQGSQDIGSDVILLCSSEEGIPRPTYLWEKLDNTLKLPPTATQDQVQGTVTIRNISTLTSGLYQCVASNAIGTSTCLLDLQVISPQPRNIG
Put plainly: Fab ELISA.

The target of assay [9] is T1, ECD of murine IGSF11, recombinant …. Put plainly: Fab ELISA.

Sequence of Streptavidin (P22629 37-163 limits assumed): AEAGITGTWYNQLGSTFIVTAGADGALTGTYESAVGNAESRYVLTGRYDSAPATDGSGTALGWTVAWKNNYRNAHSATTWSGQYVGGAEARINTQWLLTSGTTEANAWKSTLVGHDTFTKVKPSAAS

B1: A-034 (scFv format) (scFv, V domains shown)
VH: QMQLVQSGGGLVKPGGSLRLSCAASGFTFSSYTMNWVRQAPGKGLEWVSSISSIGTYIYYADSVKGRFTISRDNAKNSLYLQMNSLRAEDTAVYYCARVLLSGSYYGYFDSWGQGTLVTVSS
VL: QSVLTQPPSVSGAPGQRVTISCTGSSSNIGAGYDVHWYQQLPGTAPKLFIYGNSNRPSGVPDRFSGSKSGTSASLAITGLQAEDEADYYCQSYDSSLSGYVFGTGTKVTVL
notes: scFv
As for B1, the entries for the “ELISA binding signal (RFU)” value in [1] and in [2] were 0.5 to 1 rfu and greater than 1 rfu, respectively.

B2: A-034 (IgG1 format) (antibody, V domains shown)
VH: QMQLVQSGGGLVKPGGSLRLSCAASGFTFSSYTMNWVRQAPGKGLEWVSSISSIGTYIYYADSVKGRFTISRDNAKNSLYLQMNSLRAEDTAVYYCARVLLSGSYYGYFDSWGQGTLVTVSS
VL: QSVLTQPPSVSGAPGQRVTISCTGSSSNIGAGYDVHWYQQLPGTAPKLFIYGNSNRPSGVPDRFSGSKSGTSASLAITGLQAEDEADYYCQSYDSSLSGYVFGTGTKVTVL
notes: human IgG1 format
Turning to B2, the Kd (as a rule, a measure of binding affinity in units of concentration) in assay [3] lay within 250 to 500 nM. Further, the EC50 (commonly the concentration needed to bring the measured effect to its halfway point) in assay [4] lay in the range of 0.05 to 1 nM.

B3: A-026 (scFv format) (scFv, V domains shown)
VH: QVQLQESGPGLVKPSQTLSLTCTVSGGSISSGGYYWSWIRQHPGKGLEWIGYIYYSGSTYYNPSLKSRVTISVDTSKNQFSLKLSSVTAADTAVYYCASWSLGTSNHGWFDPWGQGTLVTVSS
VL: QSVLTQPPSASGTPGQRVTISCSGSSSNIGSNTVNWYQQLPGTAPKLLISDNNNRPSGVPDRFSGSKSGTSASLAITGLQAEDEADYYCQSYDSNLSGWVFGGGTKLTVL
notes: scFv
Take B3: the “ELISA binding signal (RFU)” value in assay [5] and in assay [2] was greater than 1 rfu in each case.

B4: A-023 (IgG1 format) (antibody, V domains shown)
VH: QVQLVQSGAEVKKPGSSVKVSCKASGGTFSSYAISWVRQAPGQGLEWMGGIIPIFGTANYAQKFQGRVTITADESTSTAYMELSSLRSEDTAVYYCARPKYSSGWFYYYGMDVWGQGTTVTVSS
VL: QSVLTQPPSVSAAPGQKVTISCSGSSSNIGNNYVSWYQQLPGTAPKLLIYDNNKRPSGIPDRFSGSKSGTSATLGITGLQTGDEADYYCGTWDSSLSVVFGGGTKLTVL
notes: human IgG1 format
Molecule B4 returned an EC50 in [4] of 0.05 to 1 nM.

B5: A-029 (IgG1 format) (antibody, V domains shown)
VH: QVQLVQSGAEVKKPGSSVKVSCKASGGTFSSYAISWVRQAPGQGLEWMGGIIPIFGTANYAQKFQGRVTITADESTGTAYMELSSLRSEDTAVYYCARSYYYYYGMDVWGQGTTVTVSS
VL: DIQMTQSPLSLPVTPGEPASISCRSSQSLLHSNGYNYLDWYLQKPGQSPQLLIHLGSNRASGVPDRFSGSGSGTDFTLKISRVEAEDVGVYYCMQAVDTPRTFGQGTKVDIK
notes: human IgG1 format
B5 displayed a 50% effective concentration (EC50) in assay [4] of 0.05 to 1 nM.

B6: A-001 (scFv format) (scFv, V domains shown)
VH: EVQLVESGGGLVKPGGSLRLSCAASGFTFSSYSMNWVRQAPGKGLEWVSSISSSSSYIYYADSVKGRFTISRDNAKNSLYLQMNSLRAEDTAVYYCVRSIIVQALGITSVFDIWGQGTMVTVSS
VL: AIRLTQSPSSLSASVGDRVTISCRASQIISNHLNWYQQKPGKAPKLLIYAASRLQTGVPSRFSGSGSETDYTLTISSLQPEDFATYYCQQSYSNPRTFGHGTKVEIK
notes: scFv
Turning to B6, the “ELISA binding signal (RFU)” value in [5] and in assay [2] was greater than 1 rfu in each case.

B7: A-008 (IgG1 format) (antibody, V domains shown)
VH: QLQLQESGPGLVKPSETLSLTCTVSGGSISSSGYYWGWIRQPPGKGLEWIGSIYYSGSTYYNPSLKSRVTISVDTSKNQFSLKLSSVTAADTAVYYCARHRVRFGEFDAFDIWGQGTMVTVSS
VL: QAVLTQPPSVSGAPGERVTLSCTGTSSNVGADFDVHWYQQFPGTAPRLLIFGSDNRPSGVPDRFSGSKSGTSASLAITGLQVEDEADYYCQAYDVRLSGWVFGGGTKLTVL
notes: human IgG1 format
B7 came in with a concentration for a half-maximal effect (EC50) in assay [6] of 0.02 to 0.05 nM.

B8: A-008 (scFv format) (scFv, V domains shown)
VH: QLQLQESGPGLVKPSETLSLTCTVSGGSISSSGYYWGWIRQPPGKGLEWIGSIYYSGSTYYNPSLKSRVTISVDTSKNQFSLKLSSVTAADTAVYYCARHRVRFGEFDAFDIWGQGTMVTVSS
VL: QAVLTQPPSVSGAPGERVTLSCTGTSSNVGADFDVHWYQQFPGTAPRLLIFGSDNRPSGVPDRFSGSKSGTSASLAITGLQVEDEADYYCQAYDVRLSGWVFGGGTKLTVL
notes: scFv
On to B8, for which the “ELISA binding signal (RFU)” value in assay [5] and in [2] was greater than 1 rfu each time.

B9: A-016 (scFv format) (scFv, V domains shown)
VH: QVQLQESGAEVKKPGASVKVSCKASGYTFTGYYMHWVRQAPGQGLEWMGGIIPIFGTANYAQKFQGRVTITADESTSTAYMELSSLRSEDTAVYYCAGAGMELTRSGAYYYYGMDVWGQGTTVTVSS
VL: QSALTQPASVSGSPGQSITISCTGTSSDIGGYTFVSWYQQHPGKAPKVMIHDVNNRPSGISNRFSGSKSGNTASLTISGLQAEDEADYYCSSVTSTNTYVFGTGTKVTVL
notes: scFv
As to B9, the “ELISA binding signal (RFU)” value was 0.5 to 1 rfu in assay [1] and greater than 1 rfu in assay [2].

B10: A-019 (scFv format) (scFv, V domains shown)
VH: QVQLVQSGAEVKKPGASVKVSCKASGYTFTGYYMHWVRQAPGQGLEWMGWINPNSGNTGYAQKFQGRVTMTRNTSISTAYMELSSLRSEDTAVYYCARGGQQQLVLDDYWGQGTLVTVSS
VL: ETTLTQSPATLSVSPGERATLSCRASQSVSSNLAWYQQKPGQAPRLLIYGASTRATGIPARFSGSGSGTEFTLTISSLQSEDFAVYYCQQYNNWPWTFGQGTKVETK
notes: scFv
As to B10, the “ELISA binding signal (RFU)” value in assay [1] is 0.5 to 1 rfu; in assay [2], greater than 1 rfu.

B11: A-025 (IgG1 format) (antibody, V domains shown)
VH: QVQLVQSGAEVKKPGSSVKVSCKASGGTFSSYAISWVRQAPGQGLEWMGGIIPIFGTANYAQKFQGRVTITADESTSTAYMELTSLRSEDTAVYYCARGGWLRQNWFDPWGQGTLVTVSS
VL: SSELTQDPAVSVALGQTVRITCQGDSLRSYYASWYQQKPGQAPVLVIYGKNNRPSGIPDRFSGSSSGNTASLTITGAQAEDEADYYCNSRDSSGNHPRVFGGGTKLTVL
notes: human IgG1 format
Turning to B11, the EC50 in [4] lay within 0.05 to 1 nM.

B12: C-010 (Fab format) (Fab, V domains shown)
VH: QVQLVQSGAEVKKPGSSVKVSCKASGGTFSSYAISWVRQAPGQGLEWMGGIIPIFGTANYAQKFQGRVTITADESTSTAYMELSSLRSEDTAVYYCARGYGEYYPAFDVWGQGTLVTVSS
VL: SYELTQPPSVSVSPGQTASITCSGDKLGDKYASWYQQKPGQSPVLVIYQDSKRPSGIPERFSGSNSGNTATLTISGTQAEDEADYYCASYAHTHSTWVFGGGTKLTVL
notes: Fab from E. coli lysate
B12: the A450 was less than 0.1 in assay [7], less than 1 in assay [8] and less than 1 in assay [9].

B13: A-009 (IgG1 format) (antibody, V domains shown)
VH: QVQLVQSGAEVKKPGSSVKVSCKASGGTFSSYAISWVRQAPGQGLEWMGGIIPIFGTANYAQKFQGRVTITADESTSTAYMELSSLRSEDTAVYYCARGRGFGELYFDYWGQGTLVTVSS
VL: ETTLTQSPATLSVSPGERATLSCRASQGVRSNIAWYQQKPGQAPRLLIYDSSTRATGIPARFSGSGSGTEFTLTISSLQSEDFAVYSCQQYKNWPRTFGQGTKVEIK
notes: human IgG1 format
In turn, B13 showed an EC50 in [4] of 0.05 to 1 nM.

B14: A-003 (IgG1 format) (antibody, V domains shown)
VH: VQLVQSGAEVKKPGSSVKVSCKASGGTFSSYAISWVRQAPGQGLEWMGGIIPIFGTANYAQKFQGRVTITADESTSTAYMELSSLRSEDTAVYYCASPRIQLWAAGGFDYWGQGTLVTVSS
VL: QSALTQPASVSGSPGQSITISCTGTSSDVGGYNLVSWYQQHPGKAPKLMIYDVSNRPSGVSNRFSGSKSGNTASLTISGLQAEDEADYYCSSFTTSTTLVFGGGTKLTVL
notes: human IgG1 format
Regarding B14, the half-maximal effective concentration (EC50) in assay [4] is 0.05 to 1 nM.

B15: A-033 (IgG1 format) (antibody, V domains shown)
VH: QVQLVQSGAEVKKPGASVKVSCKASGYTFTSYGISWVRQAPGQGLEWMGWISAYNGNTNYAQKLQGRVTMTTDTSTSTAYMELRSLRSDDTAVYYCARDHSIVGATTFDYWGQGTLVTVSS
VL: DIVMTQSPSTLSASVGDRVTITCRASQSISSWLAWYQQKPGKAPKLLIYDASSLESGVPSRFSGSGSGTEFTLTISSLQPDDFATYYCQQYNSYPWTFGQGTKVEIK
notes: human IgG1 format
The molecule B15 registered an EC50 in assay [6] of 0.02 to 0.05 nM.
